In US20140371148A1:
No end group written: not given here.

biological target: Recombinant DPP-IV; experiment: cell-based or functional assay

Row | Binder | DPP-IV IC50
1 | YAEGTFISDYSIALDKIHQQDFVNWLLAQKPSSGAPPPS-{Ado-Lys(N-ε-(2-(S)-cyano pyrrolidyl))} [[Leu^14] GIP(1-30)-exendin-4(31-39)-Ado-Lys-N-ε-(2-(S)-cyano pyrrolidyl)] | 82 nM
2 | YAEGTFISDYSIAMDKIHQQDFVNWLLAQKPSSGAPPPS (modifications not checked) [N-(γ-L-Glu-(2-(S)-cyano pyrrolidyl)-Ado-Ado) GIP(1-30)-exendin-4(31-39)] | 110 nM
3 | YAEGTFISDYSIAMDKIHQQDFVNWLLAQKPSSGAPPPS (modifications not checked) [[D-Ala^2] GIP(1-30)-exendin-4(31-39)-Ado-Lys-N-ε-(2-(S)-cyano pyrrolidyl)] | 85 nM
